Test results taken from US7659376B2, “Antibody that binds glyphosate resistance protein” (priority 2002, dated 2010).

B1: GRG-1: glyphosate resistance protein (SEQ ID NO:2), homologous to EPSP synthases; expressed in E. coli from plasmid pPEH306 (protein)
chain: MKVTIQPGDLTGILQSPASKSSMQRACAAALVAKGISEIINPGHSNDDKAARDIVSRLGARLEDQPDGSLQITSEGVKPVAPFIDCGESGLSIRMFTPIVALSKEEVTIKGSGSLVTRPMDFFDEILPHLGVKVKSNQGKLPLVIQGPLKPADVTVDGSLSSQFLTGLLLAYAAADASDVAIKVTNLKSRPYIDLTLDVMKRFGLKTPENRNYEEFYFKAGNVYDETKMQRYTVEGDWSGGAFLLVAGAIAGPITVRGLDIASTQADKAIVQALMSANAGIAIDAKEIKLHPADLNAFEFDATDCPDLFPPLVALASYCKGETKIKGVSRLAHKESDRGLTLQDEFGKMGVEIHLEGDLMRVIGGKGVKGAEVSSRHDHRIAMACAVAALKAVGETTIEHAEAVNKSYPDFYSDLKQLGGVVSLNHQFNFS
modifications: Enterobacteriaceae
notes: expressed in E. coli from plasmid pPEH306
B2: aroA: wild-type E. coli aroA (EPSP synthase), expressed from plasmid pPEH307 (protein, UniProt P0A6D3 1-427, looked up)
3-phosphoshikimate …: MESLTLQPIARVDGTINLPGSKSVSNRALLLAALAHGKTVLTNLLDSDDVRHMLNALTALGVSYTLSADRTRCEIIGNGGPLHAEGALELFLGNAGTAMRPLAAALCLGSNDIVLTGEPRMKERPIGHLVDALRLGGAKITYLEQENYPPLRLQGGFTGGNVDVDGSVSSQFLTALLMTAPLAPEDTVIRIKGDLVSKPYIDITLNLMKTFGVEIENQHYQQFVVKGGQSYQSPGTYLVEGDASSASYFLAAAAIKGGTVKVTGIGRNSMQGDIRFADVLEKMGATICWGDDYISCTRGELNAIDMDMNHIPDAAMTIATAALFAKGTTTLRNIYNWRVKETDRLFAMATELRKVGAEVEEGHDYIRITPPEKLNFAEIATYNDHRMAMCFSLVALSDTPVTILDPKCTAKTFPDYFEQLARISQAA

Key:
[1] = system: E. coli XL1 Blue MRF′; test: Growth of GRG-1 or aroA expressing strains in M9 liquid medium with glyphosate, absorbance at 600 nm at 8 hours; type: cell-based; settings: for absorbance of the culture at 600 nm: 8 hours, mean of three cultures
Description: Strains engineered to express either GRG-1 or the wild-type E. coli aroA were engineered as described in the following way. A customized expression vector, pPEH304 Cm was constructed. The essential features of pPEH304 Clare the origin of replication from pBR322, a chloramphenicol acetyl transferase gene (for selection and maintenance of the plasmid), the lacI gene, the Ptac promoter and the rrnB transcriptional terminator. The GRG-1 open reading frame was amplified as described in Example 7. […] The aroA open reading frame was amplified by PCR from E. coli strain XL1 Blue MRF′ (Stratagene). During PCR, restriction sites were added to facilitate cloning into pPEH304 Cm.
The PCR products for GRG-1 and aroA were cloned into the expression vector pPEH304 Cm to yield the plasmids pPEH306 and pPEH307, respectively, and transformed into E. coli XL1 Blue MRF′. Correct clones were identified by standard methods known in the art. The sequence of the GRG-1 and aroA open reading frames in expression clones in pPEH306 and pPEH307 were confirmed by DNA sequencing.
Strains were grown to saturation (overnight) in Luria Broth (Sambrook and Russell, 2001, supra) then diluted 1:100 in M9 liquid medium (recipe) containing 0 to 30 mM glyphosate, and supplemented with 10 g glucose, 10 mg Thiamine-HCl and 25 mg L-Proline. High level transcription from the Ptac promoter was stimulated by including 0.1 mM IPTG in a subset of the cultures (noted as +IPTG in Table 7).
Each culture was grown in a 3 ml tube at 37° C. on a culture wheel. There were three replicate tubes of each treatment. After 8 hours of growth, 310 microliters of culture was withdrawn and placed into a 96-well plate. The absorbance of the culture at 600 nm was measured on a Spectramax 96 well plate reader. The experiment was performed in triplicate, and the values in Table 7 reflect the means of three cultures.

[2] = system: E. coli XL1 Blue MRF′; test: Growth of GRG-1 or aroA expressing strains in M63 liquid medium with glyphosate, absorbance at 600 nm at 24 hours; type: cell-based; settings: M63, +IPTG
Method: In addition, these strains engineered to express either GRG-1 or the wild-type E. coli aroA, were tested in another minimal media, M63, with glyphosate concentrations up to 150 mM. 1×M63 was supplemented with 10 g glucose, 10 mg Thiamine-HCl and 25 mg L-Proline. The strains were grown to saturation (overnight) in Luria Broth (Sambrook and Russell, 2001, supra) then washed two times in M63 media (adapted from Current Protocols in Molecular Biology, Greene Publishing and Wiley-Interscience, New York) before being diluted 1:100 in fresh M63 liquid medium containing 0 to 150 mM glyphosate. High level transcription from the Ptac promoter was stimulated by including 0.1 mM IPTG all of the cultures.
Each culture was grown in 2 mls of media in 10 ml tubes at 37° C. in a shaker. At 24 hours, 300 microliters of the culture was withdrawn and placed into a 96-well assay plate. The absorbance of the culture at 600 nm was measured on a Spectromax 96 well plate reader. The values in Table 8 reflect this experiment at 24 hours (NT not tested).

[3] = +IPTG (0.1 mM), 0 mM glyphosate
[4] = +IPTG (0.1 mM), 5 mM glyphosate
[5] = +IPTG (0.1 mM), 10 mM glyphosate
[6] = +IPTG (0.1 mM), 20 mM glyphosate
[7] = +IPTG (0.1 mM), 30 mM glyphosate
[8] = glyphosate concentration 0, 24 hours
[9] = glyphosate concentration 5 (mM), 24 hours
[10] = glyphosate concentration 30 (mM), 24 hours
[11] = glyphosate concentration 60 (mM), 24 hours

| Molecule | absorbance of the culture at 600 nm [1, 3] | absorbance of the culture at 600 nm [1, 4] | absorbance of the culture at 600 nm [1, 5] | absorbance of the culture at 600 nm [1, 6] | absorbance of the culture at 600 nm [1, 7] | absorbance of the culture at 600 nm ([1]; no IPTG, 0 mM glyphosate) | absorbance of the culture at 600 nm ([1]; no IPTG, 5 mM glyphosate) | absorbance of the culture at 600 nm ([1]; no IPTG, 10 mM glyphosate) | absorbance of the culture at 600 nm ([1]; no IPTG, 20 mM glyphosate) | absorbance of the culture at 600 nm ([1]; no IPTG, 30 mM glyphosate) | glyphosate concentration in whose presence survival and growth of E. coli is allowed ([1]; summary of Table 7) | absorbance of the culture at 600 nm [2, 8] | absorbance of the culture at 600 nm [2, 9] | absorbance of the culture at 600 nm [2, 10] | absorbance of the culture at 600 nm [2, 11] | absorbance of the culture at 600 nm ([2]; glyphosate concentration 150 (mM), 24 hours) | glyphosate concentrations that inhibit growth of expressing cells ([1]; summary of Table 7) |
| --- | --- | --- | --- | --- | --- | --- | --- | --- | --- | --- | --- | --- | --- | --- | --- | --- | --- |
| B1 | 0.100 | 0.104 | 0.117 | 0.125 | 0.135 | 0.092 | 0.102 | 0.110 | 0.112 | 0.104 | 30 mM | 0.4943 | 0.7192 | 0.7884 | 0.789 | 0.951 |  |
| B2 | 0.075 | 0.068 | 0.063 | 0.056 | 0.052 | 0.095 | 0.048 | 0.046 | 0.047 | 0.048 |  | 0.5982 | 0.1209 | 0.0276 | 0.0298 |  | ≥ 10 mM |
